# Measurements taken from PMC11999149.
# Where two headings read alike, the source gives them in different places.
# Assays:
# [1] = target: membrane truncated soluble E2 (sE2, residues 384-645) of the H77 isolate (hepatitis C virus, isolate H77, genotype 1a) (UniProt P27958); assay: SPR
# AR2A = assay: ELISA; details: IgG at its EC50; normalized using the signal of HCV1 at EC50
# [2] = target: AR3A full-length IgG (reference); assay: ELISA; details: IgG at its EC50; normalized using the signal of HCV1 at EC50
# [3] = target: membrane truncated soluble E2 (sE2, residues 384-645) of the H77 isolate (Hepatitis C virus genotype 1a, isolate H77) (UniProt P27958); assay: SPR
Substance,percent of parent (AR2A),percent of parent [2],other results
Fab #2 (group I) (from UniProt P01857),,,Kd ([1]; Fab): 0.19 nM; koff ([1]; Fab): 2.08e-05 s⁻¹
detergent-extracted full-length E1/E2 of HCV isolate H77 (genotype 1a) (from UniProt P27958) L438A,88 % WT,4 % WT,
Fab A3_9 (from UniProt P01857),,,Kd ([1]; Fab): 1.6 nM; koff ([1]; Fab): 0.000119 s⁻¹
detergent-extracted full-length E1/E2 of HCV isolate H77 (genotype 1a) (from UniProt P27958) G436A,123 % WT,22 % WT,
detergent-extracted full-length E1/E2 of HCV isolate H77 (genotype 1a) (from UniProt P27958) K628A,24 % WT,63 % WT,
Fab B1_11 (group I) (from UniProt P01857),,,Kd ([1]; Fab): 0.485 nM; koff ([1]; Fab): 3.33e-05 s⁻¹
detergent-extracted full-length E1/E2 of HCV isolate H77 (genotype 1a) (from UniProt P27958) N428A,70 % WT,6 % WT,
Fab A2_11 (group II) (from UniProt P01857),,,Kd ([1]; Fab): 0.66 nM; koff ([1]; Fab): 4.41e-05 s⁻¹
detergent-extracted full-length E1/E2 of HCV isolate H77 (genotype 1a) (from UniProt P27958) T625A,28 % WT,12 % WT,
A3_9 full-length IgG1 (from UniProt P01857),,,Kd [1]: 0.0448 nM; koff [1]: 1.02e-05 s⁻¹
detergent-extracted full-length E1/E2 of HCV isolate H77 (genotype 1a) (from UniProt P27958) F627A,38 % WT,68 % WT,
detergent-extracted full-length E1/E2 of HCV isolate H77 (genotype 1a) (from UniProt P27958) G440A,79 % WT,10 % WT,
Fab B1_9 (group II) (from UniProt P01857),,,Kd ([1]; Fab): 2.62 nM; koff ([1]; Fab): 0.000299 s⁻¹
detergent-extracted full-length E1/E2 of HCV isolate H77 (genotype 1a) (from UniProt P27958) T425A,77 % WT,6 % WT,
Fab A8_9 (group III) (from UniProt P01857),,,Kd ([1]; Fab): 4.02 nM; koff ([1]; Fab): 0.000299 s⁻¹
detergent-extracted full-length E1/E2 of HCV isolate H77 (genotype 1a) (from UniProt P27958) R630A,43 % WT,84 % WT,
detergent-extracted full-length E1/E2 of HCV isolate H77 (genotype 1a) (from UniProt P27958) W437A,98 % WT,4 % WT,
detergent-extracted full-length E1/E2 of HCV isolate H77 (genotype 1a) (from UniProt P27958) Y485A,94 % WT,76 % WT,
detergent-extracted full-length E1/E2 of HCV isolate H77 (genotype 1a) (from UniProt P27958) L427A,67 % WT,7 % WT,
AR3A Fab (reference),,,Kd [3]: 10 nM
detergent-extracted full-length E1/E2 of HCV isolate H77 (genotype 1a) (from UniProt P27958) L441A,85 % WT,5 % WT,
detergent-extracted full-length E1/E2 of HCV isolate H77 (genotype 1a) (from UniProt P27958) C429A,43 % WT,3 % WT,
detergent-extracted full-length E1/E2 of HCV isolate H77 (genotype 1a) (from UniProt P27958) F442A,71 % WT,2 % WT,
